Experimental data taken from article PMC4372062 (Biochemistry, 2014).

Molecular target: the molecule itself
Test: native gel or EMSA

B1: Fenna–Matthews–Olson antenna protein (FMO) (natural protein, UniProt Q46393 1-366, looked up)
chain: MALFGSNDVTTAHSDYEIVLEGGSSSWGKVKARAKVNAPPASPLLPADCDVKLNVKPLDPAKGFVRISAVFESIVDSTKNKLTIEADIANETKERRISVGEGMVSVGDFSHTFSFEGSVVNLFYYRSDAVRRNVPNPIYMQGRQFHDILMKVPLDNNDLIDTWEGTVKAIGSTGAFNDWIRDFWFIGPAFTALNEGGQRISRIEVNGLNTESGPKGPVGVSRWRFSHGGSGMVDSISRWAELFPSDKLNRPAQVEAGFRSDSQGIEVKVDGEFPGVSVDAGGGLRRILNHPLIPLVHHGMVGKFNNFNVDAQLKVVLPKGYKIRYAAPQYRSQNLEEYRWSGGAYARWVEHVCKGGVGQFEILYAQ
For B1, the “stoichiometry N” value was 3.
